{
  "source": "the DeepSol protein solubility set",
  "data": [
    {"test": "soluble on expression in E. coli; label from the status in PepcDB or PDB records", "values": [
      {"sequence": "MNPERSERIEIPVLPLRDVVVYPHMVIPLFVGREKSIRCLEAAMDHDKKIMLVAQKEASTDEPGVNDLFTVGTVASILQMLKLPDGTVKVLVEGLQRARISALSDNGEHFSAKAEYLESPTIDEREQEVLVRTAISQFEGYIKLNKKIPPEVLTSLNSIDDPARLADTIAAHMPLKLADKQSVLEMSDVNERLEYLMAMMESEIDLLQVEKRIRNRVKKQMEKSQREYYLNEQMKAIQKELGEMDDAPDENEALKRKIDAAKMPKEAKEKAEAELQKLKMMSPMSAEATVVRGYIDWMVQVPWNARSKVKKDLRQAQEILDTDHYGLERVKDRILEYLAVQSRVNKIKGPILCLVGPPGVGKTSLGQSIAKATGRKYVRMALGGVRDEAEIRGHRRTYIGSMPGKLIQKMAKVGVKNPLFLLDEIDKMSSDMRGDPASALLEVLDPEQNVAFSDHYLEVDYDLSDVMFVATSNSMNIPAPLLDRMEVIRLSGYTEDEKLNIAKRHLLPKQIERNALKKGELTVDDSAIIGIIRYYTREAGVRGLEREISKLCRKAVKQLLLDKSLKHIEINGDNLHDYLGVQRFDYGRADNENRVGQVTGLAWTEVGGDLLTIETACVPGKGKLTYTGSLGEVMQESIQAALTVVRARAEKLGINPDFYEKRDIHVHVPEGATPKDGPSAGIAMCTALVSCLTGNPVRADVAMTGEITLRGQVLPIGGLKEKLLAAHRGGIKTVLIPFENKRDLEEIPDNVIADLDIHPVKRIEEVLTLALQNEPSGMQVVTAK", "soluble on expression in E. coli": "not soluble"},
      {"sequence": "MGSDKIHHHHHHMENERKRILELVKQGIISTEEALTLLENISKKEGKTAAKENIRRSAAPREEEQVEEETKEEPSYDYSKGWNNQGNPYTPPKSRKRRPEPTPENHERDEEEGGENSSKDREDSMRNMVNDLSQAGEKIGSFLNSAFKQVKDMPFPFLTSTKIERDFIYHDTTLSILEFEIANGNIEFKPSDSNDIKVHAMIKLFKEYPEDEALKIFFDKTTLRVDEETLRFESKSKQIVTNLTVYLPRREYDYVSVKMLNGNFHMDELSGRDLFVKTTNGNISIGTLNATLAEIESINGNVRIQNGEIRDVALKTFNGNVAVKGNYYSTNLQTKNGNVNYQLTGNEATFLKAKTGAGNIDVVVPAAIGVDGRFHTNLGKLLLDLKDAEILESKTESVSKSIIFTKLPDAADSSLKIEAEATTGSVKIRDVK", "soluble on expression in E. coli": "not soluble"},
      {"sequence": "MGSDKIHHHHHHMDREIFVSYSVSANSIAGWVAYGGSESFHDMSRGILAARIGIPRLLRMFRKFCIKSSWYVPGIVMETFPDEVRAIYADGHELGTHGYLHEYAPSMSYDQEERVIAKTAELVKDITGHNPYGHLPSQWEESVNTMRILMNHGYKYARGLEDDDFHPFYASTGRSWPRVDYSKLPETWMKPMNLGEKIDFVEIPINWFLNDGTYFNFNKHVPGKRPMSLSEVLENWKAAFDYVYREYEYAIFPVNIHPDTSGNPEVQIFHEKFISYILEHNGASFVSDSFIAEDFRKRYPFPHEFREKVDL", "soluble on expression in E. coli": "not soluble"},
      {"sequence": "MVYSKTFRVEEKSITVSARGTIGVVFYRDFAYLPAVSLICFVPKEEFDIRFLFHALRAIKFKKQGSATGQLTVAQFKEYGIHVPSLKKQKEIAAILDPLYSFFTDLNEGLPAEIELRKKQLDYYQNFLFNWIQKQKELVEQASTN", "soluble on expression in E. coli": "soluble"},
      {"sequence": "MITVPHSRKVELDEIDRAILRLLQEDGRMSYSEISRRINVPESTVRARVNRLVKEGVIRKFAALINPFKAGYEIVAFIAVDAEPAKVKQVVEELAKFPEVDVLGIVTGAHDIFMQVTVKDLQELERFILEKMAKIDGIKSTETSILTSVKKWGYARVF", "soluble on expression in E. coli": "soluble"},
      {"sequence": "QTQTVAIIGMGSRGLSILEQLIGMSRHADQQPLQIEVFDPQPPGSGLHSAQQPDYLMLNTMAGQLSAFSSAFPACEPAGWTFLQWCGAQDVRLDERGHVSTNGLGRPVAFGDFVPRALLGRYLQHSYRFLLQQCPAHVQVRHYAERVIKCRSRSDAPGFRLRSLTREMNVDALFLTVGHASSATELQDVGATVAIEGLGLTAMDTLASLTQGRGGRYVRDAGFAGWRYLPSGREPRVFMYSRSGLPFHARPHWYPTRHAALPRLFFTAVAIGDLRKQNGGGQLDFQADVLPLIKDEMRAVFYQTKVRLDAPRQLEAVQRTLREAVARPALFARLAEQWGEFDPEQWLTTQRWTGEAGTYGQWFVEWIKRDLALSRLGTAHSPIRQALEVWRDCRDLLRLVADRNGLTESSTLAFYDTWAGLGNRLVGGPQKERHEDLLALIDAGVVTVLAPMSDAQQADSRFDSVMAARVAPSGLSGNRSALLDDLREQGL", "soluble on expression in E. coli": "not soluble"},
      {"sequence": "MESAGFHYKLDIPAGTPDCAIVLLHGSGRTEDDLISFGRAVFPTGALYAPRGAVAWENGFAFFRRKPDRELDIDDLKHQATRLCHFVAFVFQQTGRRPILVGYSNGAIIAAETICQAHHLSKGAILLRPLSPRKDQSLPNLAGYPVLLLAGASDDRRHPSDAPHLSEQLTSAGADAVLETINTGHGWAEDAADERLSRQWLARLPIA", "soluble on expression in E. coli": "not soluble"},
      {"sequence": "MMPPLTKIEVLAKRVMEGAQLKTHKYFRIAVPHAITGQQLIALVLERGAPDDEAEASHLASLLLHHGYMFPVIEHGQPFKDDGTLYRLQRPYFWPSQAELVPDVEYAIYLNKRLLRNEQKHGLEEDEVESFNRLADVLAHMWAFIVQQSELQLKQQKEKKKVDKVVFDSEERAFWKIRKPSRGGPNFLEDPYMKIEKKIRRQNAQGYRCLMDRLRFAIKTKPWLKALKASDTMVTWVDQRAEFDPFLHPPQPSNPWISDEASFWNQPTDTSSAEIPTEKRVKRWGLSVQELVKDPIGRQVLETFLESEFSSENIRFWIAIQDLKYAPNEQIYQKAERIREEFLAQGAPAQVNVDNRTLDQTLECISKAKDASQMRFAFYHSEEHVFTLMAKDSYPRFVRSQIYKAVLTAAQQHGTKRLGWRNFVFNMGTTKKPATSKPAKPQDSIGTGQVLPKQLSSDSLPVRQAHGVKPDPE", "soluble on expression in E. coli": "not soluble"},
      {"sequence": "MKIFIVGSTGRVGKSLLKSLSTTDYQIYAGARKVEQVPQYNNVKAVHFDVDWTPEEMAKQLHGMDAIINVSGSGGKSLLKVDLYGAVKLMQAAEKAEVKRFILLSTIFSLQPEKWIGAGFDALKDYYIAKHFADLYLTKETNLDYTIIQPGALTEEEATGLIDINDEVSASNTIGDVADTIKELVMTDHSIGKVISMHNGKTAIKEALESLLEHHHHHH", "soluble on expression in E. coli": "soluble"},
      {"sequence": "MGSDKIHHHHHHMSLNQPPHTRLRHDNPRSPNTFPSRAKVVGAEDLATTSNASTGHGFNLARPVHRNREPATPAPRVVEGANRRRSACEQDISHRHEKIYNWAPAPNTRQGQPTRRLTSRSGPKEREHAARTPRTALQCQRVLALGRVRTCASCGRGSEVLLRGLCPECFDRRYGVVEGLPWELVVDVCTSCGRVRIGHKWLEYATAEEAVGLMLSSMSLKPVHPVERVELEDWALETRLDWRTRVRLRFRANYRDTLFRVSRVIVLRLNPSTCPLCIVRRSGEYDTLVQVRGYRAGEAVEKTLNSLDPREAPIDVVPVRGGVDVYFHHRGAAARFVSRLASTARVRVSRVEHEHVGTSSLGRRRSRKTILVRLEGLTGERGE", "soluble on expression in E. coli": "not soluble"},
      {"sequence": "MFNNILVVCVGNICRSPTAERLLQRYHPELKVESAGLGALVGKGADPTAISVAAEHQLSLEGHCARQISRRLCRNYDLILTMEKRHIERLCEMAPEMRGKVMLFGHWDNECEIPDPYRKSRETFAAVYTLLERSARQWAQALNAEQV", "soluble on expression in E. coli": "not soluble"},
      {"sequence": "MNRNDAYHTLISEICALSLISEPERFYESANFKISDVDFTLHYQDRDEGRAILIYGDMGALPARNRDSALLALMDINFHMFSGAHSPAFSWNAQTGRVLLMGSIGLERATAEGVLLLMKSFADLAREWREHGFMGPVGAAGAPVNMPASQATTRDTPASSGRFQ", "soluble on expression in E. coli": "not soluble"},
      {"sequence": "MSLDRRAQQRLALGEFLRARRRAAVRAELGLPDMPRSRTSGLRREEVAVQAGVSVTWYTWLEQGRDINPSRQVLDAIARALRLSPSEHDYVLALGGYTVDHAVTAGPPPPQIQRFLDALGGHPAFAITSDWGIAAWNTAYAALYPNIERVPPPDRNLLWLVFMDPAIRELLPDWDADSRRFLAEFRADAGPMVGEPSYTALVSRLSSESPHFATAWRAADIERFTSRERLFRHPVVGELRLEHHQVAPVDVPDIQIVAYLPEPGSVAAERLRRLVGQAGDTAREGHHHHHH", "soluble on expression in E. coli": "soluble"},
      {"sequence": "MSLRAALADLHASIVSARKAPFSDRPIEGSLERCLAALAPLCRRARITRLGDLTGLDRLGLPVMQAVRPAALSEVTSLGRGLSRAEAAVGALMESLERYFAEAIPAERTFLATADQLEVTDGLFENLVVPEWRGKWRQRTIAWIEGIDVVGGSAYPVPLELVHTRYSEPQPAHDGAFLRTTTGLACHTSRHGAFLHGLWECLERDAIARAFGTHGFFDRWRIAPCGLGDGVDHIRSLAGARGISFALWLAPSPAAVPVVWCQTVEAGHGEPILALPTEGYAAGPSIEMAAASAMLEALSARAGAISGARDDQTREHYRRSTDAAVAKARELVLADAASKPGEATYATIPDPGTLLDRVVEAGLGPVLAIPVGVDEEAGVHCVRTVLPGASPFFVLREGHHHHHH", "soluble on expression in E. coli": "not soluble"},
      {"sequence": "LVFDEEGNSSWIATDTVKVAASRPVELNPFYIDTVYEVSGKKIAYMVYNEFSTGPNNQATDTEYREQMKQIFARFKGQSPDAFILDLRYNPGGYLSCATDLGSYLAPAADLGKVFCTTLYNDISDPQKIDFPLNTGLASENLNLSKLYVLTSKFTASASEAVINCLRPYIGTENVVVIGETTVGKNVAMEPYQDERYNFILWPVVAYVLNSAGQANYVNGITPDFTLSER", "soluble on expression in E. coli": "not soluble"},
      {"sequence": "MSSTECYGAPPHNYYQDWPTTHSYYPSVPSSYSPLNHHPADIWAAHPSNYIMGNGHVSPPATASGLSPPASRSSNSSAELPTGVTASQHNTYKWMHTKRSQRPAAPKKKVIDENGTNRTNFTTHQLTELEKEFHTAKYVNRTRRTEIASNLKLQEAQVKIWFQNRRMKEKKREKEKAFLARNTWESNSPTSSCSGEDVKNFK", "soluble on expression in E. coli": "not soluble"},
      {"sequence": "MGSDKIHHHHHHMIEPVSEDTILITLAPAIDDTLPARIASLVDSIRRAGFHWLVDMVPSYTTLMVVYDPVLVDFRQVTDKLRPIVHRLSTQGHTAELKSRLVELPVYYSAETGPDLQWLATESGLDCEEVIRRHSSVEYRVHALGFAPGFAFMGQVDPSIAAPRKTTPRKQVPAGSVGIANRQTAVYPQVSPGGWQLIGRCPTRLFDSTNLSLLKVGDRVRFTPISREAFLAAGGELIS", "soluble on expression in E. coli": "not soluble"},
      {"sequence": "MQKQLLLGVEAIAQAALDAGISGVYAYPGTPSTEITEHIQNSRMAKERNVHREWAANEKTAMESALGMSYAGKRALVCMKHVGMNVAADCFMNAAITGANGGMVIVAADDPSMHSSQNEQDSRVYGQFAMIPVMEPSNQQEAYDMTRLAFDLSERLGTPVMMRITTRLAHSRAGVVQTEPIGENELHLP", "soluble on expression in E. coli": "not soluble"},
      {"sequence": "MLLNLDVRMQLKELAQKEFKEPVSIKLFSQAIGCESCQTAEELLKETVEVIGEAVGQDKIKLDIYSPFTHKEETEKYGVDRVPTIVIEGDKDYGIRYIGLPAGLEFTTLINGIFHVSQRKPQLSEKTLELLQVVDIPIEIWVFVTTSCGYCPSAAVMAWDFALANDYITSKVIDASENQDLAEQFQVVGVPKIVINKGVAEFVGAQPENAFLGYIMAVYEKLKREKEQA", "soluble on expression in E. coli": "soluble"},
      {"sequence": "MSLIILTRDDEPRIFTPDSDAASPALHSTSPLPDPASASPLHREEKILPKVCNIVSCLSFSLPASPTDSGLASPTIITREGQQFWAKCLIWKYQLYLHGLHKKSDGRRDKQISASPST", "soluble on expression in E. coli": "soluble"}
    ]}
  ]
}
